B1: sTcdB (TcdB residues 1285-1804), wild type, with C-terminal HA tag (other)
chain: TNIRINLDSNTRSFIVPIITTEYIREKLSYSFYGSGGTYALSLSQYNMGINIELSESDVWIIDVDNVVRDVTIESDKIKKGDLIEGILSTLSIEENKIILNSHEINFSGEVNGSNGFVSLTFSILEGINAIIEVDLLSKSYKLLISGELKILMLNSNHIQQKIDYIGFNSELQKNIPYSFVDSEGKENGFINGSTKEGLFVSELPDVVLISKVYMDDSKPSFGYYSNNLKDVKVITKDNVNILTGYYLKDDIKISLSLTLQDEKTIKLNSVHLDESGVAEILKFMNRKGNTNTSDSLMSFLESMNIKSIFVNFLQSNIKFILDANFIISGTTSIGQFEFICDENDNIQPYFIKFNTLETNYTLYVGNRQNMIVEPNYDLDDSGDISSTVINFSQKYLYGIDSCVNKVVISPNIYTDEINITPVYETNNTYPEVIVLDANYINEKINVNINDLSIRYVWSNDGNDFILMSTSEENKVSQVKIRFVNVFKDKTLANKLSFNFSDKQDVPVSEIILSFTPSYY
B2: TcdB fragment 1454-1804 (other)
chain: SELQKNIPYSFVDSEGKENGFINGSTKEGLFVSELPDVVLISKVYMDDSKPSFGYYSNNLKDVKVITKDNVNILTGYYLKDDIKISLSLTLQDEKTIKLNSVHLDESGVAEILKFMNRKGNTNTSDSLMSFLESMNIKSIFVNFLQSNIKFILDANFIISGTTSIGQFEFICDENDNIQPYFIKFNTLETNYTLYVGNRQNMIVEPNYDLDDSGDISSTVINFSQKYLYGIDSCVNKVVISPNIYTDEINITPVYETNNTYPEVIVLDANYINEKINVNINDLSIRYVWSNDGNDFILMSTSEENKVSQVKIRFVNVFKDKTLANKLSFNFSDKQDVPVSEIILSFTPSYY
B3: FZD5^CRD-Fc (recombinant human, Sino Biologics) (Fc fusion, UniProt Q13467 27-167, looked up)
chain: ASKAPVCQEITVPMCRGIGYNLTHMPNQFNHDTQDEAGLEVHQFWPLVEIQCSPDLRFFLCSMYTPICLPDYHKPLPPCRSVCERAKAGCSPLMRQYGFAWPERMSCDRLPVLGRDAEVLCMDYNRSEATTAPPRPFPAKP
notes: domain: CRD; also called CRD5; CRD5-Fc; not shown: Fc tag of the bought protein
B4: TcdB fragment 1510-1688 (other)
chain: SNNLKDVKVITKDNVNILTGYYLKDDIKISLSLTLQDEKTIKLNSVHLDESGVAEILKFMNRKGNTNTSDSLMSFLESMNIKSIFVNFLQSNIKFILDANFIISGTTSIGQFEFICDENDNIQPYFIKFNTLETNYTLYVGNRQNMIVEPNYDLDDSGDISSTVINFSQKYLYGIDSCV
B5: Wnt3A (recombinant human, StemRD) (ligand)
chain: SYPIWWSLAVGPQYSSLGSQPILCASIPGLVPKQLRFCRNYVEIMPSVAEGIKIGIQECQHQFRGRRWNCTTVHDSLAIFGPVLDKATRESAFVHAIASAGVAFAVTRSCAEGTAAICGCSSRHQGSPGKGWKWGGCSEDIEFGGMVSREFADARENRPDARSAMNRHNNEAGRQAIASHMHLKCKCHGLSGSCEVKTCWWSQPDFRAIGDFLKDKYDSASEMVVEKHRESRGWVETLRPRYTYFKVPTERDLVYYEASPNFCEPNPETGSFGTRDRTCNVSSHGIDGCDLLCCGRGHNARAERRREKCRCVFHWCCYVSCQECTRVYDVHTCK
B6: TcdB fragment 1430-1804 (other)
chain: SGELKILMLNSNHIQQKIDYIGFNSELQKNIPYSFVDSEGKENGFINGSTKEGLFVSELPDVVLISKVYMDDSKPSFGYYSNNLKDVKVITKDNVNILTGYYLKDDIKISLSLTLQDEKTIKLNSVHLDESGVAEILKFMNRKGNTNTSDSLMSFLESMNIKSIFVNFLQSNIKFILDANFIISGTTSIGQFEFICDENDNIQPYFIKFNTLETNYTLYVGNRQNMIVEPNYDLDDSGDISSTVINFSQKYLYGIDSCVNKVVISPNIYTDEINITPVYETNNTYPEVIVLDANYINEKINVNINDLSIRYVWSNDGNDFILMSTSEENKVSQVKIRFVNVFKDKTLANKLSFNFSDKQDVPVSEIILSFTPSYY
B7: FZD8^CRD-Fc (recombinant human, R&D Systems) (Fc fusion)
chain: ASAKELACQEITVPLCKGIGYNYTYMPNQFNHDTQDEAGLEVHQFWPLVEIQCSPDLKFFLCSMYTPICLEDYKKPLPPCRSVCERAKAGCAPLMRQYGFAWPDRMRCDRLPEQGNPDTLCMDYNRTDLTT
notes: domain: CRD
B8: TcdB fragment 1688-1835 (other)
chain: VNKVVISPNIYTDEINITPVYETNNTYPEVIVLDANYINEKINVNINDLSIRYVWSNDGNDFILMSTSEENKVSQVKIRFVNVFKDKTLANKLSFNFSDKQDVPVSEIILSFTPSYYEDGLIGYDLGLVSLYNEKFYINNFGMMVSGL
B9: FZD4^CRD-Fc (recombinant human, Sino Biologics) (Fc fusion)
chain: FGDEEERRCDPIRISMCQNLGYNVTKMPNLVGHELQTDAELQLTTFTPLIQYGCSSQLQFFLCSVYVPMCTEKINIPIGPCGGMCLSVKRRCEPVLKEFGFAWPESLNCSKFPPQNDHNHMCMEGPGDEEVPLPHKTPIQPGEE
notes: domain: CRD
B10: TcdB fragment 1510-1804 (other)
chain: SNNLKDVKVITKDNVNILTGYYLKDDIKISLSLTLQDEKTIKLNSVHLDESGVAEILKFMNRKGNTNTSDSLMSFLESMNIKSIFVNFLQSNIKFILDANFIISGTTSIGQFEFICDENDNIQPYFIKFNTLETNYTLYVGNRQNMIVEPNYDLDDSGDISSTVINFSQKYLYGIDSCVNKVVISPNIYTDEINITPVYETNNTYPEVIVLDANYINEKINVNINDLSIRYVWSNDGNDFILMSTSEENKVSQVKIRFVNVFKDKTLANKLSFNFSDKQDVPVSEIILSFTPSYY
B11: TcdB fragment 1071-1512 (other)
chain: LTTATTAIITSSLGIASGFSILLVPLAGISAGIPSLVNNELVLRDKATKVVDYFKHVSLVETEGVFTLLDDKIMMPQDDLVISEIDFNNNSIVLGKCEIWRMEGGSGHTVTDDIDHFFSAPSITYREPHLSIYDVLEVQKEELDLSKDLMVLPNAPNRVFAWETGWTPGLRSLENDGTKLLDRIRDNYEGEFYWRYFAFIADALITTLKPRYEDTNIRINLDSNTRSFIVPIITTEYIREKLSYSFYGSGGTYALSLSQYNMGINIELSESDVWIIDVDNVVRDVTIESDKIKKGDLIEGILSTLSIEENKIILNSHEINFSGEVNGSNGFVSLTFSILEGINAIIEVDLLSKSYKLLISGELKILMLNSNHIQQKIDYIGFNSELQKNIPYSFVDSEGKENGFINGSTKEGLFVSELPDVVLISKVYMDDSKPSFGYYSNN

For test [1], the target named is T1, FZD2^CRD-Fc (recombinant human, R&D Systems) (human, UniProt Q14332 24-162).
T1 construct: domain: CRD; also called Fc-tagged CRD2; CRD2; not shown: Fc tag of the bought protein
Description: BLI, FZD2 CRD-Fc on anti-hIgG-Fc biosensor. For orientation: Biolayer interferometry detects binding as a change in optical thickness at a sensor tip.

Test [2] deals with T1, FZD2^CRD-Fc (recombinant human, R&D …). The test is described as follows: BLI (Blitz), FZD2CRD-Fc on anti-hIgG-Fc biosensor; kon error printed 1.69 x 10^3.
Test [3] shares this target.
The target is the same in test [4]. The test is described as follows: BLI (Blitz), FZD2CRD-Fc on anti-hIgG-Fc biosensor.
Test [5] has as its target T2, His-tagged CRD2 (CRD of human Frizzled 2, residues 24-156) (human, UniProt Q14332 24-156).
T2 construct: range 24-156
The test is described as follows: pull down by His-CRD2.

In test [6] the target is B1. Description: pull-down on Protein G beads and BLI, FZD5 CRD-Fc with or without PAM or Wnt3A.
For test [7], the target named is Recombinant full length TcdB (C. difficile strain VPI 10463), 6xHis-tagged (Clostridium difficile strain VPI 10463, UniProt P18177 1-2366). Description: BLI, FZD5 CRD-Fc with or without Wnt3A.
Test [8] concerns the target T1, FZD2^CRD-Fc (recombinant human, R&D …). The test is described as follows: BLI, FZD2CRD-Fc (20 µg/ml) on anti-hIgG-Fc biosensor, then 20 µg/ml Wnt3A.
In test [9] the target is B1. Description: BLI, CRD-Fc with or without Wnt3A.

Recombinant full length TcdB (C. difficile strain VPI 10463), 6xHis-tagged, sequence (P18177 whole entry): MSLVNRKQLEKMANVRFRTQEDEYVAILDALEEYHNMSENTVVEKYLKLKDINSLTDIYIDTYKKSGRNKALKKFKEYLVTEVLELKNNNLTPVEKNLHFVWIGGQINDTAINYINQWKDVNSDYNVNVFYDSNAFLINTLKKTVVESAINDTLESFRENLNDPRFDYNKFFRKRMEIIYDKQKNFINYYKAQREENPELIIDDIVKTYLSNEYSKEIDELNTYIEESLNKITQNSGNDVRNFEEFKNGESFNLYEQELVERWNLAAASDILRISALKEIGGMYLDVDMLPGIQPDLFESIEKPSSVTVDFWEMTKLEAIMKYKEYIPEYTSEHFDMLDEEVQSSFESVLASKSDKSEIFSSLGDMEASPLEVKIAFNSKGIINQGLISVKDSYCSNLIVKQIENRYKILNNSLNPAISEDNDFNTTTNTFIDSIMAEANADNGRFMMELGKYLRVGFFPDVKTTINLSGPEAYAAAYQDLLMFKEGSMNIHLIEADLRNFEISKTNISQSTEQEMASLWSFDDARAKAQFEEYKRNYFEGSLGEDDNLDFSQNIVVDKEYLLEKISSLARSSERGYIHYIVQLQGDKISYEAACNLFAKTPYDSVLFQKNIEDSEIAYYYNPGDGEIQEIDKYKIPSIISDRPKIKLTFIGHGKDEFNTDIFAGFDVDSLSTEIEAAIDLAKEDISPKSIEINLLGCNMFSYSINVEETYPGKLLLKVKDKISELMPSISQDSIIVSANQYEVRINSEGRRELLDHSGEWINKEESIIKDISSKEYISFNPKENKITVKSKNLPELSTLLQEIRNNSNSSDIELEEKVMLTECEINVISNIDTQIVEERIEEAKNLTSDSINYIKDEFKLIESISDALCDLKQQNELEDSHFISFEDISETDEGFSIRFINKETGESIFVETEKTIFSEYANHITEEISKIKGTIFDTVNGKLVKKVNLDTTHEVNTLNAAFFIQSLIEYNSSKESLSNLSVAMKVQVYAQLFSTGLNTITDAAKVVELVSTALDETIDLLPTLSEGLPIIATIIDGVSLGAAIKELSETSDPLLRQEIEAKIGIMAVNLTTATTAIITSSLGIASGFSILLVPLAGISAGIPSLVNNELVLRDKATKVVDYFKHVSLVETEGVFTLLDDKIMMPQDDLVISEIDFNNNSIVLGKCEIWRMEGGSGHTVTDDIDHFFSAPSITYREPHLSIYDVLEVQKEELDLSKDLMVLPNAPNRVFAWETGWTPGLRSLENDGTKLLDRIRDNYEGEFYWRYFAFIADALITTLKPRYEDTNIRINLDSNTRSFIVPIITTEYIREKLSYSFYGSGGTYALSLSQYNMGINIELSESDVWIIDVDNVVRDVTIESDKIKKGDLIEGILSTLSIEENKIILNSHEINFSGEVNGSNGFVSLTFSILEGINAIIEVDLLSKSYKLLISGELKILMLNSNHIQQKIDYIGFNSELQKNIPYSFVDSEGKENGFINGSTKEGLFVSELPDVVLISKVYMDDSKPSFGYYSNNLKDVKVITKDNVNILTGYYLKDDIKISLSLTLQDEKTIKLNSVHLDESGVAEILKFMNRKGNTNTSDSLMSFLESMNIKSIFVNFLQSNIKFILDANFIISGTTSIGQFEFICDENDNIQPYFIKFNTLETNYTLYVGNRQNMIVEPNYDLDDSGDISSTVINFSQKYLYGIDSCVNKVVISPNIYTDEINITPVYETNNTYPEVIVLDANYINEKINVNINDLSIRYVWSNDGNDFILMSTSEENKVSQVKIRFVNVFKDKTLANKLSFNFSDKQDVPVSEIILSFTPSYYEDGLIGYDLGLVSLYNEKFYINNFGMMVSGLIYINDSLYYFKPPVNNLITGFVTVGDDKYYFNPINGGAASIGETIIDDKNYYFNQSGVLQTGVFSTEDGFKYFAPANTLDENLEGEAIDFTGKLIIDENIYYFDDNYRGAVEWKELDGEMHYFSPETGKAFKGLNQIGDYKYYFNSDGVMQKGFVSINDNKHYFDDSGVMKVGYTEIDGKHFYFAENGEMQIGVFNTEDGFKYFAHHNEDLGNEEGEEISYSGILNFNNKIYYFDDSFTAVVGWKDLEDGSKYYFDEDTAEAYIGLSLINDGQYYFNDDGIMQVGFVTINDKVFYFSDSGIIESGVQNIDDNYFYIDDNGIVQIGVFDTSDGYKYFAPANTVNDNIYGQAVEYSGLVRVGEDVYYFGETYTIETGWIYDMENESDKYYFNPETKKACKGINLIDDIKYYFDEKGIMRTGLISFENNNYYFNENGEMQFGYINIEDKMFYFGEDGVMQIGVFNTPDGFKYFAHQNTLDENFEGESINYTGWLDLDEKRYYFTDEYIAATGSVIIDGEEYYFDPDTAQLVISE

B1: the values for the Kd in test [1] and in test [4] were about 13 nM and 13 nM, respectively. Besides, the kon in test [2] came out at 114000 M⁻¹ s⁻¹. For the same molecule, in test [3], the off-rate (koff) came to 0.0015 s⁻¹.

As to B2, in test [5], the binding result is given as “no binding”.

Regarding B3, the binding result in test [6] and in test [7] was “binds” throughout.

As for B4, the binding result in test [5] is listed as “no binding”.

B5: the binding result in [8] is “binds”.

For the molecule B6, in test [5], the binding result is “no binding”.

In the case of B7, in test [9], the binding result was “binds”.

Consider B8, for which the binding result in [5] is on record as “no binding”.

On to B9, for which the binding result in test [9] is “binds”.

As to B10, the binding result in test [5] is reported as “no binding”.

Regarding B11, the binding result in test [5] is reported as “no binding”.

In general, Kd refers to the concentration at which binding is half-saturated. Usually kon stands for the second-order rate constant of association. One may read the koff as the rate constant with which the complex falls apart.

(Values after patent US20200339636A1 (CHILDREN S MEDICAL CENTER, published 2020).)
